1 molecule from article PMC11422484 (Cell Reports, 2024) can be followed below.

The target in the experiment is full-length native GPC (strain Josiah) expressed on HEK293T cells (Lassa virus, strain Josiah, UniProt P08669). Briefly: flow cytometry on cells. The settings on record: one partner purified.

B1: 25.10C IgG (antibody, V domains shown)
VH: QVQLQESGGGLVKPGGSLRLSCTASGFNFNKYNMNWVRQAPGKGLEWVSSISALSTYIYYADSLKGRFTVSRDNAKNSLFLQMNSLRDDDTAVYYCAREIRRASTWSADLWGRGTLVTVSS
VL: DIQMTQSPSSLSASVGDRVIITCRASQSISSSLNWYQQKPGKAPKLLIYAAVNLETGVPSRFSGSGFGTDFTLAISNVQPEDFATYYCQQSDTRTFGRGTKLDVK
notes: IgG1
B1: the binding result was “binds”.
